Drawing on US12473560 (FLAGSHIP PIONEERING INNOVATIONS VI, dated 2025), this text covers Kd for nine molecules.

The experiment addresses soluble G614 HexaPro spike ectodomain (SARS-CoV-2, UniProt P0DTC2 14-1208).

B1: AB-1 full-length IgG1 (antibody, V domains shown)
VH: EVQLEESGTVLARPGASVKMSCKASGYTFTTYWMHWIKQRPGQGLEWIGAIYPGNSDTQYNQKFKDKAKLTAVKSTSSAYMELSSLTNEDSAVYFCTREGIPQLLRTLDYWGQGTSVTVSS
VL: DILMTQSPSSLSASLGERVSLTCRASQEISGYLSWLQEKPDGTIKRLIYAASTLDSGVPKRFSGSRSGSDYSLTISSLESEDFADYYCLQYLSYPWTFGGGTKLEIK
As to B1, the Kd (commonly the equilibrium constant for the complex coming apart) was 0.389 nM.

B2: AB-2 full-length IgG1 (antibody, V domains shown)
VH: EVQLEESGTVLARPGASVKMSCKASGYTFTTYWMHWIKQRPGQGLEWIGAIYPGNGDTNYNQKFKDKAKLTAVKSTSSAYMELSSLTNEDSAVYFCTREGIPQLLRTLDYWGQGTSVTVSS
VL: DILMTQSPSSLSASLGERVSLTCRASQEISGYLSWLQEKPDGTIKRLIYAASTLDSGVPKRFSGSRSGSDYSLTISSLESEDFADYYCLQYLSYPWTFGGGTKLEIK
Take B2: the affinity, expressed as Kd, was 1.69 nM.

B3: AB-5 full-length IgG1 (antibody, V domains shown)
VH: EVQLEESGTVLARPGASVKMSCKASGYTFTSYWMHWIKQRPGQGLEWIGAIYPGNGDTNYNQKFKDKAKLTAVKSTSSAYMELSSLTNEDSAVYFCTREGIPQLLNTLDVWGQGTSVTVSS
VL: DILMTQSPSSLSASLGERVSLTCRASQEISGYLSWLQEKPDGTIKRLIYAASTLDSGVPKRFSGSRSGSDYSLTISSLESEDFADYYCQQYLSYPWTFGGGTKLEIK
B3: the Kd came to 2.09 nM.

B4: AB-6 full-length IgG1 (antibody, V domains shown)
VH: EVQLEESGTVLARPGASVKMSCKASGYTFTSYWMHWIKQRPGQGLEWIGAIYPGNSDTNYNQKFKDKAKLTAVKSTSSAYMELSSLTNEDSAVYFCTREGIPQLTRTLDYWGQGTSVTVSS
VL: DILMTQSPSSLSASLGERVSLTCRASQEISGYLSWLQEKPDGTIKRLIYAASTLDSGVPKRFSGSRSGSDYSLTISSLESEDFADYYCLQYLSYPWTFGGGTKLEIK
The molecule B4 gave a Kd of 0.628 nM.

B5: AB-4 full-length IgG1 (antibody, V domains shown)
VH: EVQLEESGTVLARPGASVKMSCKASGYTFTTYWMHWIKQRPGQGLEWIGAIYPGNGDTNYNQKFKDKAKLTAVKSTSSAYMELSSLTNEDSAVYFCTREGIPQLLRTFDYWGQGTSVTVSS
VL: DILMTQSPSSLSASLGERVSLTCRASQEIGGYLSWLQEKPDGTIKRLIYAASTLDSGVPKRFSGSRSGSDYSLTISSLESEDFADYYCLQYLSYPWTFGGGTKLEIK
The molecule B5 came in with a Kd of 1.14 nM.

B6: AB-9 full-length IgG1 (antibody, V domains shown)
VH: EVQLEESGTVLARPGASVKMSCKASGYTFTSYWMHWIKQRPGQGLEWIGAIYPGNSDTNYNQKFKDKAKLTAVTSTSSAYMELSSLTNEDSAVYFCTREGIPQLLRTLDYWGQGTSVTVSS
VL: DILMTQSPSSLSASLGERVSLTCRASQEISGYLSWLQEKPDGTIKRLIYAASTLDSGVPKRFSGSRSGSDYSLTISSLESEDFADYYCLQYLSYPWTFGGGTKLEIK
As for B6, the Kd was 1.2 nM.

B7: AB-3 full-length IgG1 (antibody, V domains shown)
VH: EVQLEESGTVLARPGASVKMSCKASGYTFTTYWMHWIKQRPGQGLEWIGAIYPGNGDTNYNQKFKDKAKLTAVKSTSSAYMELSSLTNEDSAVYFCTREGIPQKLRTLDVWGQGTSVTVSS
VL: DILMTQSPSSLSASLGERVSLTCRASQEISGYLSWLQEKPDGTIKRLIYAASTLDSGVPKRFSGSRSGSDYSLTISSLESEDFADYYCLQYLSYPWTFGGGTKLEIK
In turn, B7 gave a Kd of 2.07 nM.

B8: AB-7 full-length IgG1 (antibody, V domains shown)
VH: EVQLEESGTVLARPGASVKMSCKASGYTFTSYWMHWIKQRPGQGLEWIGAIYPGNSDTNYNQKFKDKAKLTAVKSTSSAYMELSSLTNEDSAVYFCTREGIPQLLRSLDYWGQGTSVTVSS
VL: DILMTQSPSSLSASLGERVSLTCRASQEISGYLSWLQEKPDGTIKRLIYAASTLDSGVPKRFSGSRSGSDYSLTISSLESEDFADYYCLQYLSYPWTFGGGTKLEIK
For the molecule B8, binding was put at a Kd of 2.55 nM.

B9: AB-8 full-length IgG1 (antibody, V domains shown)
VH: EVQLEESGTVLARPGASVKMSCKASGYTFTTYWMHWIKQRPGQGLEWIGAIYPGNSDTIYNQKFKDKAKLTAVKSTSSAYMELSSLTNEDSAVYFCTREGIPQLLRTLDYWGQGTSVTVSS
VL: DILMTQSPSSLSASLGERVSLTCRASQEISGYLSWLQEKPDGTIKRLIYAASTLDSGVPKRFSGSRSGSDYSLTISSLESEDFADYYCLQYLSYPWTFGGGTKLEIK
For B9, the dissociation constant (Kd) stood at 1.73 nM.
